Source: patent US20230313190

Target: T1, Flag-Atxn1-82Q-HA, P54253
T1 chain: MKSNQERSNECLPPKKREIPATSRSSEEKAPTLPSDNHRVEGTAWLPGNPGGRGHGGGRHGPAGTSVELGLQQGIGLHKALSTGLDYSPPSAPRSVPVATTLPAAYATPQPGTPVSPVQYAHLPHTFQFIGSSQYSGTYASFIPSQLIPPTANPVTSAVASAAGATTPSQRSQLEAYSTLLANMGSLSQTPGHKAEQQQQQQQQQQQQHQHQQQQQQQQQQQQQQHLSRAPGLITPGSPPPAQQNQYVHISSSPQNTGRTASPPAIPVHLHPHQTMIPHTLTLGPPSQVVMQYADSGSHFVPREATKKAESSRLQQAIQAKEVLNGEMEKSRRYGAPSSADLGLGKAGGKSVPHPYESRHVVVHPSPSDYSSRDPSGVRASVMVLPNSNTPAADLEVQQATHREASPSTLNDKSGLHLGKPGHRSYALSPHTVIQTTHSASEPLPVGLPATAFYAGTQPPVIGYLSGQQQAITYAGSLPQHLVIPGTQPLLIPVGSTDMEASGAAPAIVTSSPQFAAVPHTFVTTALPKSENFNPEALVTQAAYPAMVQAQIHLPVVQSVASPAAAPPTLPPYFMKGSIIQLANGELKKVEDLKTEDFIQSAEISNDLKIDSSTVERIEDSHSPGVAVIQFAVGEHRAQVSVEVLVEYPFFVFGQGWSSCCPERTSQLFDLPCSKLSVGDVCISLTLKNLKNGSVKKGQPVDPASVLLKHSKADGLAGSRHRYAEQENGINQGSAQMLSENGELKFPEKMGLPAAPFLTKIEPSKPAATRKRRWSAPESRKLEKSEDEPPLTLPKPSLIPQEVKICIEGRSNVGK

B1: GST-rRNF4 (protein)
chain: MSTRNPQRKRRGGAVNSRQTQKRTRETTSTPEISLEAEPIELVETVGDEIVDLTCESLEPVVVDLTHNDSVVIVEERRRPRRNGRRLRQDHADSCVVSSDDEELSKDKDVYVTTHTPRSTKDEGTTGLRPSGTVSCPICMDGYSEIVQNGRLIVSTECGHVFCSQCLRDSLKNANTCPTCRKKINHKRYHPIYI
  in vitro ubiquitination assay: the unmodified Atxn1 82Q protein was not ubiquitinated
